Measurements: a protein production outcome set (Wang et al. 2014)

Test: label from the status in PepcDB records
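Further: failed if final PepcDB status was selected cloned or expressed and not failed if soluble or beyond.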

Protein production, not failed:
MIQCEECLCWQHSVCMGLLEESIPEQYICYICRDPPGQRWSAKYRYDKEWLNNGRMCGLSFFKENYSHLNAKKIVSTHHLLADVYGVTEVLHGLQLKIGILKNKHHPDLHLWACSGKRKDQDQIIAGVEKKIAQDTVNREEKKYVQNHKEPPRLPLKMEGTYITSEHSYQKPQSFGQDCKSLADPGSSDDDDVSSLEEEQEFHMRSKNSLQYSAKEHGMPEKNPAEGNTVFVYNDKKGTEDPGDSHLQWQLNLLTHIENVQNEVTSRMDLIEKEVDVLESWLDFTGELEPPDPLARLPQLKRHIKQLLIDMGKVQQIATLCSV
MIQMVKRVHIFDWHKEHARKIEEFAGWEMPIWYSSIKEEHLAVRNAVGIFDVSHMGEIVFRGKDALKFLQYVTTNDISKPPAISGTYTLVLNERGAIKDETLVFNMGNNEYLMICDSDAFEKLYAWFTYLKRTIEQFTKLDLEIELKTYDIAMFAVQGPKARDLAKDLFGIDINEMWWFQARWVELDGIKMLLSRSGYTGENGFEVYIEDANPYHPDESKRGEPEKALHVWERILEEGKKYGIKPCGLGARDTLRLEAGYTLYGNETKELQLLSTDIDEVTPLQANLEFAIYWDKDFIGKDALLKQKERGVGRKLVHFKMIDKGIPREGYKVYANGEMIGEVTSGTLSPLLNVGIGIAFVKEEYAKPGIEIEVEIRGQRKKAVTVTPPFYDPKKYGLFRET
MIQVPASFDIQGHRGCRGLLPENTIAAFTKALLLGVTTLEFDLVISKDNRVVVSHDTFFHHEITMMVDGEDVTEANEKNFNLYAMNYADIKEIDVGMKTHPRFKSQKKVPAVKPLFRELIETAEKLSAKIQYNGEIKSTVEGDNIDHPNIALFCDLVVAEIKKAHITDRFTLQSFDVRALEYMHSQYPDIKLSYLVETKGTLKKQLEKLSFTPAVYSPDVTLVSKKDIDAAHKLGMRVIPWTVNTKEEIETLISLGVDGIITDYPDLFFEK
MIRIKTPSEIEKMKKAGKAVAVALREVRKVIVPGKTAWDVETLVLEIFKKLRVKPAFKGYGGYKYATCVSVNEEVVHGLPLKEKVFKEGDIVSVDVGAVYQGLYGDAAVTYIVGETDERGKELVRVTREVLEKAIKMIKPGIRLGDVSHCIQETVESVGFNVIRDYVGHGVGRELHEDPQIPNYGTPGTGVVLRKGMTLAIEPMVSEGDWRVVVKEDGWTAVTVDGSRCAHFEHTILITENGAEILTKEG
MIRKYRYGAPFDTEALTEKIETAEEAFPYGEISQKEGFAFTYIMDEDDIVYGLGESNRGINKRGYCYISNCTDDPIHTEDKRSLYGAHNFIIVSGKTTFGLFFDYPSKLTFDIGYTRMDTLKVSCENADLDIYVIEGENAYDIVKQFRRVIGRSYIPPKFAFGFGQSRWGYTTKEDFRAVAKGYRENHIPIDMIYMDIDYMQDFKDFTVNEKNFPDFPEFVKEMKDQELRLIPIIDAGVKVEKGYEVYEEGVKNNYFCKREDGSDFVAAVWPGDTHFPDMLNPEARKWFGDKYRFLIDQGIEGFWNDMNEPAIFYSSEGLAEAKEFAGEFAKDTEGKIHPWAMQAKMKDIVNSPEDYKRFYHNVNGKKIRHDKVHNLFGYNMTRAAGEAFERIDPEKRFLMFSRSSYIGMHRYGGIWMGDNKSWWSHILLNLKMLPSLNMCGFMYTGADLGGFGDDTTRDLLLRFLALGVFTPLMRDHAAEGTREQECYQFENIEDFRSVINARYRLVPYLYSEYMKAALNDDMYFKPLGFVYPDDKMAIRVEDQLMLGNEIMIAPVYEQNARGRYVYLPEEMKFIKFMPDGSISEEVLEKGVHYVDVALNEVPLFIRSGKCIPVAEAAECVKDIDTENMQLIGYEGSSYTLYEDDGIHKDYDKKENYRVLTK
MIRLAAIDVDGTLTDRDRLISTKAIESIRSAEKKGLTVSLLSGNVIPVVYALKIFLGINGPVFGENGGIMFDNDGSIKKFFSNEGTNKFLEEMSKRTSMRSILTNRWREASTGFDIDPEDVDYVRKEAESRGFVIFYSGYSWHLMNRGEDKAFAVNKLKEMYSLEYDEILVIGDSNNDMPMFQLPVRKACPANATDNIKAVSDFVSDYSYGEEIGQIFKHFELM

Protein production, failed:
MIQAFLEKLPHLDVYGNPQYFFYLILAVLPIYIGLFFKKRFALYEIIFSLSFIVMMLTGSTFNQLKSLLAYVVGQSLLVFIYKAYRKRFNHTLVFYVTVCLSIFPLFLVKLIPAISEDGHQSLFGFLGISYLTFRAVAMIIEMRDGVLKEFTLWEFLRFLLFFPTFSSGPIDRFKRFNEDYINIPDRNELLDMLGQAIHYLMLGFLYKFILAYIFGSLIMPPLKELALEQGGVFNWPTLGVMYAFGFDLFFDFAGYTMFALAISNLMGIKSPINFDKPFKSRDLKEFWNRWHMSLSFWFRDFVFMRLVKLLVKNKVFKNRNVTSSVAYIINMLLMGFWHGLTWYYIAYGLFHGIGLVINDAWVRKKKNINKERRLAKKPLLPENKWTYALGVFITFNVVMFSFLIFSGFLDLLWFPQPHNK
MIQARSRRPLSCSLRSSSQNPIATTFLTGGKMDRIVRQILVKLLGGERSVYELIYYQDASLREFFELLNSLRDEGLIEVESGKVRITEKGREVAEKERLKFCGDVECECCEGTGLSINPYFKEILQKYSEIAKDRPETIEVYDQGFISLEGVIRRVEFVYDRGDLNGRIFVVGDDDLFGIAASLTGMPEKVAVVDIDERLINFINRVAEEYSLNVEAFVYDVQQAFPDELKRKFDVFVTDPVETIPGLKLFLSRGVSTLKGVGGAGYFGITTLEASRRKWYEIQRMIHDMGFIITDLRRRFNVYPEDEKNFFRFQEKLPIVRHLQAKVDFNWYNSTLFRIEAVKEPKPIVEGEMIIDEKVYKDDESWATPY
MIQLVIRLGLLALLIFWTLYLIRPFVTILVWALVLAVAFNPIFLVLAKILGGRAKLAAGLLTAINLAIVIGPAAWLGLGAVDGIRDFAGELAAGDLVIPSPPAAIKTWPLIGTPLYEFWDQASTNLRSVVQRIAPYLKPFAGTLLGIAGDAGVGTIKFLLSVVVAGCLFPYGPQLVAAGRSFLSRIVPEQSEHFLDLAGATIRAVAQGVIGIAVVQALLAGIGFKLAGIPIAGLLALLVLLLSIVQIGGAIIMLPVMIWIWTDKDVTVAVLLTLFLGIVSILDNILKPLVMGRGLTTPALVILIGVIGGTLGHGIVGLFIGPIVLSVAWELTVAWIRTDRASAASQATIDR
MIQMDGGDRLRVTLLDRMSTVESSRSCLTLEAILMADKNRTSPQILSPPPSRSQSNRSLVEVMQREHRHSRDKTAWKSLREKLRLKRNGSVWISSNSIPSLDTPIPNRDNVSHQLGFLLSNSGNVTEEASSVEGRIRLGAVLAEERALSAREEETPAEREVEPARMSLMELLEENEGQMSFVSVDGEAEEEVAAVTAAEISCCVCMVRSKGAAFIPCGHTFCRLCSRELWVQRGNCPLCNTTILEVLDLF
MIREFFQKYFIDPIKYNTGYNPVNTLVYAIILGIATLLVYKVLKRLKIEINNAFFRALIPYMIFGAFTRALTDAGVFPRTYLTVSPGIYFLVFVIAFSALLVSHKFAKDWRGVFLWFGWGLVMVDLAAMSANISKINFDFAVLKYFIPFLILAELVVFLLSKKVSLVRENSYLFYAHFYDATTTFVGVDFMGYWEQHVLPRLLIGLTGTAAVMYVLKFIILFAAVWLLKELEKEGEEKELLDFIKMVIFILGFAPGTRNLLRMLMGV
MIRFYMSLSVVKHTILYLCFIFLLLYLKKRYPDNVIIGFFLKIRWCFINSMLHLHFIAIWIAGYRNRCSNSSWNFGYFGCCVETQAKVGRTATNLLLTES
MIRMTKVDIISGFLGAGKTTFIKQLINQAFAGEKLVLIENEFGEIGIDGGFLKNAGIEITEMNSGCICCTLVGDFSKALKKVLEEYQPDRVIIEPSGVGKLSDIMKAIEDVKKDADIAIDGRITVVDGKKAKLYLKNFGEFFKDQVEHASAIVISRTQAMSDDKIEECVHMLRDENKEAAIISTPWAQLGKEAIIHALEKGSELAGLLEETHGQECCHHEHHHHEHEACGHEHHHHHADEIFTSWGKETAHKYTKEELDFMLKALSETEAYGTVLRSKGIIQMSDGSWRQFDLVPQEYEVREGQPDYTGRLCVIGTDLKEEELMTLFHLKLEHHHHHH
MIRNSGIHHEKLSQLLQSGHSLWVLYLDIAKFHEVEFRQGYRACAQILDLVLTEMKHTLHNYMHLFHTILLDYQGGDDFLFYFAPNENTPWSIAKLIPEFVPTLESRINHRIQRLVNETITLHSGLVECKPQPGRSVDYLLYGALKEAFLLNKSEPDPLYFSHREEVNRLLEEPQTYLSSAFQPILDVVSGEFFGFEALTRLKPPSSFAGIADLFPFAEKIGQLYPVETICRRTAILNSSQILRPKELLFLNVEPQVLTDPEFSSGQTRRLLETQGLTPSDVVLEITERSAIANYGTFREALEHYRKQGYLIALDDVGAGYSSLQSIAELHPDFLKIDRCLIQGIHLDPIKWALFETFVTFSRRIGCRILAEGVETQEEMRTVVQLGADYVQGYFIAKPSFTRPELSDPVTQIVQSQQRLSFNSEKTVQHLLEPLPLVTPQTTVNAVQNYFEEHAKIWLIGVADKGELLGVVQRDNLYSALATPFGVSLYSQRPVTSLMNNKQLLIEDTTPIEVASSLAMARPDAHLYDGIVVVQQQKPIGMIRVASLIKAMSDTQLQIAQGASPLTGLPGNSAIEQEIKRRLNSGNAFGMIYADLNQFKAFNDTYGFQYGDSIIKLLGKILMQDSLKADDLAFVGHVGGDDFIILTTQNVTKTLGETILLSFQEQLSAMQGAQDLSLALAGLIIYPHTAWTPATLSERIAAVKREAKKAHCNYFLLRE
MIRNTSNGWGSVSRWLHWILALTIIGMIGFGWWMNHIPARPDRFFYRSIHADIGYVILLLTVLRLVWRVVNPTPALPADSQPWQRLAARISHGALYLAVIAVIVLGWAHSGAHAPDYSDFFGLFHVPQFTSPDRAAANAYEDRHILFAYVLLALIAVHVVAALWHHFIRRDRVVTRMVADEAG
MIRTAKRTELIEVAQGRRPADIVIKGGTVVNVYSGEFLRQNVAIYHDAIAYVGEKEVAVDEHTIVIDAEGMYVSPGFIEPHAHPWVLYNPVSMTAKVLPLGTTTTVNDNLFFYLHFGVDGFRQLIEDLRVLPGHFFWLVRLVSQADFPGERDWFDPRHIQELLAMDEVVGTAEVTRWPLLYQGDPFLLETIEAAKRAGKVVDGHTAGCSYEKLNSIAASGVSACHEAITAEEALHRLRLGMWTTLRHSSLRPDFPEIIRLITEKKVSTQRITMTTDGPHPGFIEREGFVDGLVRKAVELGVPPMTALQMATINAATYLQLDDEIGGIAPGKLADILLLPDLVTFQPSLVIAKGRIVARDGKLLAPLPEIDWKRYVSKKPFLFAKERLDDERLYRYPHSESDQPVPVMYFKSNVITERKDVALPSVDGYADLSHHPGLLYAALIDRNGQWVAKAILERFALDIDGMASTYNTTTELLVIGKQPEAMAAAAKRVLEMGGGIVVIDGGRPVVEIPLPFTGMMTTDDSFDTAVRFHDELLSALQERGFPFHDILYTLLFLTCDFLPGLRLIPYGLYDVKRNEILLPAEKIGEKVVK
